The target of experiment [1] is T1, integrin αVβ3 (human, UniProt P06756 31-1048; P05106 27-788).
T1 construct: mature; biotinylated in capture lift and capture ELISA; also on M21 melanoma cells in some assays; also called vitronectin receptor; αVβ3 receptor
The experiment in a line: SPR (BIAcore). A general note: Surface plasmon resonance follows binding to a sensor surface in real time, without labels.

The target in experiment [2] is T1, integrin αVβ3. The experiment in a line: ELISA titration of Fab on immobilized αVβ3. Background: An ELISA detects its analyte on a solid surface through an enzyme-linked reagent.
Experimental: For ELISA titration of Fab on immobilized αVβ₃ and the related integrins αVβ₅ and αIIbβ₃, Immulon II microtiter plates were coated with 1 μg/ml purified receptor in 20 mM Tris, pH 7.4, 150 mM NaCl, 2 mM CaCl, 1 mM MgCl₂, 1 mM MnCl₂, washed once, and blocked in 3% BSA in 50 mM Tris, pH 7.4, 100 mM NaCl, 2 mM CaCl₂, 1 mM MgCl₂ for 1 h at 25° C. […] Just prior to use, the plates were washed two times and were then incubated 1 h at 25° C. with various dilutions of Fab. […] All dilutions and washes were in 50 mM Tris-HCl, pH 7.4, 100 mM NaCl, 2 mM CaCl₂, and 1 mM MgCl₂.

B1: LM609 grafted antibody combinatorial clone 2G4 (Fab, V domains shown)
VH: QVQLVESGGGVVQPGRSLRLSCAASGFTFSSYDMSWVRQAPGKGLEWVAKVSSGGGSTYYLDTVQGRFTISRDNSKNTLYLQMNSLRAEDTAVYYCARHNYGSFASWGQGTTVTVSS
VL: EIVLTQSPATLSLSPGERATLSCQASQSISNHLHWYQQRPGQAPRLLIRYRSQSISGIPARFSGSGSGTDFTLTISSLEPEDFAVYYCQQSGSWPLTFGGGTKVEIK
notes: Fab
Regarding B1, the “fold slower dissociation rate” value in experiment [1] was greater than 10 fold.

B2: LM609 grafted antibody variant E102 (Fab, V domains shown)
VH: QVQLVESGGGVVQPGRSLRLSCAASGFTFSSYDMSWVRQAPGKGLEWVAKVSSGGGSTYYLDTVQGRFTISRDNSKNTLYLQMNSLRAEDTAVYYCARHNYGSFAEWGQGTTVTVSS
VL: EIVLTQSPATLSLSPGERATLSCQASQSISNHLHWYQQRPGQAPRLLIRYRSQSISGIPARFSGSGSGTDFTLTISSLEPEDFAVYYCQQSGSWPHTFGGGTKVEIK
notes: Fab
As for B2, in experiment [2], the “fold enhanced binding over LM609 grafted antibody” value (shortened to “fold enhanced binding”) is greater than 3 fold.

B3: LM609 grafted antibody combinatorial clone C176 (Fab, V domains shown)
VH: QVQLVESGGGVVQPGRSLRLSCAASGFTFSSYDMSWVRQAPGKGLEWVAKVSSGGGSTYYPDTVQGRFTISRDNSKNTLYLQMNSLRAEDTAVYYCARHNYGSFATWGQGTTVTVSS
VL: EIVLTQSPATLSLSPGERATLSCQASQSISNFLHWYQQRPGQAPRLLIRYRSQSISGIPARFSGSGSGTDFTLTISSLEPEDFAVYYCQQSGSWPHTFGGGTKVEIK
notes: Fab
Regarding B3, the “fold slower dissociation rate” value in experiment [1] was greater than 10 fold.

B4: LM609 grafted antibody combinatorial clone 6D1 (Fab, V domains shown)
VH: QVQLVESGGGVVQPGRSLRLSCAASGFTFSSYDMSWVRQAPGKGLEWVAKVSSGGGSTYYPDTVQGRFTISRDNSKNTLYLQMNSLRAEDTAVYYCARHNYGSFYSWGQGTTVTVSS
VL: EIVLTQSPATLSLSPGERATLSCQASQSISNHLHWYQQRPGQAPRLLIRYRSQSISGIPARFSGSGSGTDFTLTISSLEPEDFAVYYCQQSGSWPLTFGGGTKVEIK
notes: Fab
Take B4: the “fold slower dissociation rate” value in experiment [1] is greater than 10 fold.

B5: LM609 grafted antibody combinatorial clone 17 (Fab, V domains shown)
VH: QVQLVESGGGVVQPGRSLRLSCAASGFTFSSYDMSWVRQAPGKGLEWVAKVSSGGGSTYYLDTVQGRFTISRDNSKNTLYLQMNSLRAEDTAVYYCARHNYGSFASWGQGTTVTVSS
VL: EIVLTQSPATLSLSPGERATLSCQASQSISNFLHWYQQRPGQAPRLLIRYRSQSISGIPARFSGSGSGTDFTLTISSLEPEDFAVYYCQQSGSWPHTFGGGTKVEIK
notes: Fab
For the molecule B5, the “fold slower dissociation rate” value in experiment [1] is greater than 10 fold.

B6: LM609 grafted antibody variant L30 (Fab, V domains shown)
VH: QVQLVESGGGVVQPGRSLRLSCAASGFTFLSYDMSWVRQAPGKGLEWVAKVSSGGGSTYYLDTVQGRFTISRDNSKNTLYLQMNSLRAEDTAVYYCARHNYGSFAYWGQGTTVTVSS
VL: EIVLTQSPATLSLSPGERATLSCQASQSISNHLHWYQQRPGQAPRLLIRYRSQSISGIPARFSGSGSGTDFTLTISSLEPEDFAVYYCQQSGSWPHTFGGGTKVEIK
notes: Fab
B6: the “fold enhanced binding” value in experiment [2] is greater than 3 fold.

B7: LM609 grafted antibody variant L96 (Fab, V domains shown)
VH: QVQLVESGGGVVQPGRSLRLSCAASGFTFSSYDMSWVRQAPGKGLEWVAKVSSGGGSTYYLDTVQGRFTISRDNSKNTLYLQMNSLRAEDTAVYYCARHNYGSFAYWGQGTTVTVSS
VL: EIVLTQSPATLSLSPGERATLSCQASQSISNHLHWYQQRPGQAPRLLIRYRSQSISGIPARFSGSGSGTDFTLTISSLEPEDFAVYYCQQSGSWPLTFGGGTKVEIK
notes: Fab
Take B7: the “fold enhanced binding” value in experiment [2] is greater than 3 fold.

B8: LM609 grafted antibody variant N92 (Fab, V domains shown)
VH: QVQLVESGGGVVQPGRSLRLSCAASGFTFSSYDMSWVRQAPGKGLEWVAKVSSGGGSTYYLDTVQGRFTISRDNSKNTLYLQMNSLRAEDTAVYYCARHNYGSFAYWGQGTTVTVSS
VL: EIVLTQSPATLSLSPGERATLSCQASQSISNHLHWYQQRPGQAPRLLIRYRSQSISGIPARFSGSGSGTDFTLTISSLEPEDFAVYYCQQSNSWPHTFGGGTKVEIK
notes: Fab
For the molecule B8, the “fold enhanced binding” value in experiment [2] is greater than 3 fold.

B9: LM609 grafted antibody combinatorial clone 8F9 (Fab, V domains shown)
VH: QVQLVESGGGVVQPGRSLRLSCAASGFTFSSYDMSWVRQAPGKGLEWVAKVSSGGGSTYYPDTVQGRFTISRDNSKNTLYLQMNSLRAEDTAVYYCARHNHGSFASWGQGTTVTVSS
VL: EIVLTQSPATLSLSPGERATLSCQASQSISNHLHWYQQRPGQAPRLLIRYRSQSISGIPARFSGSGSGTDFTLTISSLEPEDFAVYYCQQSGSWPLTFGGGTKVEIK
notes: Fab
For B9, the “fold slower dissociation rate” value in experiment [1] was greater than 10 fold.

B10: LM609 grafted antibody variant M102 (Fab, V domains shown)
VH: QVQLVESGGGVVQPGRSLRLSCAASGFTFSSYDMSWVRQAPGKGLEWVAKVSSGGGSTYYLDTVQGRFTISRDNSKNTLYLQMNSLRAEDTAVYYCARHNYGSFAMWGQGTTVTVSS
VL: EIVLTQSPATLSLSPGERATLSCQASQSISNHLHWYQQRPGQAPRLLIRYRSQSISGIPARFSGSGSGTDFTLTISSLEPEDFAVYYCQQSGSWPHTFGGGTKVEIK
notes: Fab
Regarding B10, the “fold enhanced binding” value in experiment [2] is greater than 3 fold.

B11: LM609 grafted antibody combinatorial clone 6G1 (Fab, V domains shown)
VH: QVQLVESGGGVVQPGRSLRLSCAASGFTFSSYDMSWVRQAPGKGLEWVAKVSSGGGSTYYPDTVQGRFTISRDNSKNTLYLQMNSLRAEDTAVYYCARHNYGSFASWGQGTTVTVSS
VL: EIVLTQSPATLSLSPGERATLSCQASQSISNHLHWYQQRPGQAPRLLIRYRSQSISGIPARFSGSGSGTDFTLTISSLEPEDFAVYYCQQSGSWPLTFGGGTKVEIK
notes: Fab
Consider B11, for which, in experiment [1], the “fold greater association rate” value is 2 to 4 fold and the “fold slower dissociation rate” value was greater than 10 fold.

B12: LM609 grafted antibody variant G102 (Fab, V domains shown)
VH: QVQLVESGGGVVQPGRSLRLSCAASGFTFSSYDMSWVRQAPGKGLEWVAKVSSGGGSTYYLDTVQGRFTISRDNSKNTLYLQMNSLRAEDTAVYYCARHNYGSFAGWGQGTTVTVSS
VL: EIVLTQSPATLSLSPGERATLSCQASQSISNHLHWYQQRPGQAPRLLIRYRSQSISGIPARFSGSGSGTDFTLTISSLEPEDFAVYYCQQSGSWPHTFGGGTKVEIK
notes: Fab
As to B12, in experiment [2], the “fold enhanced binding” value was greater than 3 fold.

B13: LM609 grafted antibody combinatorial clone C29 (Fab, V domains shown)
VH: QVQLVESGGGVVQPGRSLRLSCAASGFTFSSYDMSWVRQAPGKGLEWVAKVSSGGGSTYYPDTVQGRFTISRDNSKNTLYLQMNSLRAEDTAVYYCARHNHGSFYSWGQGTTVTVSS
VL: EIVLTQSPATLSLSPGERATLSCQASQSISNHLHWYQQRPGQAPRLLIRYRSQSISGIPARFSGSGSGTDFTLTISSLEPEDFAVYYCQQSGSWPLTFGGGTKVEIK
notes: Fab
For the molecule B13, in experiment [1], the “fold greater association rate” value lay within 2 to 4 fold and the “fold slower dissociation rate” value was greater than 10 fold.

B14: LM609 grafted antibody combinatorial clone C37 (Fab, V domains shown)
VH: QVQLVESGGGVVQPGRSLRLSCAASGFTFSSYDMSWVRQAPGKGLEWVAKVSSGGGSTYYLDTVQGRFTISRDNSKNTLYLQMNSLRAEDTAVYYCARHNYGSFYEWGQGTTVTVSS
VL: EIVLTQSPATLSLSPGERATLSCQASQSISNHLHWYQQRPGQAPRLLIRYRSQSISGIPARFSGSGSGTDFTLTISSLEPEDFAVYYCQQSGSWPLTFGGGTKVEIK
notes: Fab
In the case of B14, in experiment [1], the “fold slower dissociation rate” value was greater than 10 fold.

B15: LM609 grafted antibody variant F32 (Fab, V domains shown)
VH: QVQLVESGGGVVQPGRSLRLSCAASGFTFSSYDMSWVRQAPGKGLEWVAKVSSGGGSTYYLDTVQGRFTISRDNSKNTLYLQMNSLRAEDTAVYYCARHNYGSFAYWGQGTTVTVSS
VL: EIVLTQSPATLSLSPGERATLSCQASQSISNFLHWYQQRPGQAPRLLIRYRSQSISGIPARFSGSGSGTDFTLTISSLEPEDFAVYYCQQSGSWPHTFGGGTKVEIK
notes: Fab
On to B15, for which the “fold enhanced binding” value in experiment [2] is greater than 3 fold.

B16: LM609 grafted antibody variant K52 (Fab, V domains shown)
VH: QVQLVESGGGVVQPGRSLRLSCAASGFTFSSYDMSWVRQAPGKGLEWVAKVKSGGGSTYYLDTVQGRFTISRDNSKNTLYLQMNSLRAEDTAVYYCARHNYGSFAYWGQGTTVTVSS
VL: EIVLTQSPATLSLSPGERATLSCQASQSISNHLHWYQQRPGQAPRLLIRYRSQSISGIPARFSGSGSGTDFTLTISSLEPEDFAVYYCQQSGSWPHTFGGGTKVEIK
notes: Fab
Turning to B16, the “fold enhanced binding” value in experiment [2] is greater than 3 fold.

B17: LM609 grafted antibody combinatorial clone 56 (Fab, V domains shown)
VH: QVQLVESGGGVVQPGRSLRLSCAASGFTFSSYDMSWVRQAPGKGLEWVAKVSSGGGSTYYPDTVQGRFTISRDNSKNTLYLQMNSLRAEDTAVYYCARHNYGSFASWGQGTTVTVSS
VL: EIVLTQSPATLSLSPGERATLSCQASQSISNFLHWYQQRPGQAPRLLIRYRSQSISGIPARFSGSGSGTDFTLTISSLEPEDFAVYYCQQSGSWPHTFGGGTKVEIK
notes: Fab
Regarding B17, in experiment [1], the “fold slower dissociation rate” value was greater than 10 fold.

B18: LM609 grafted antibody variant A102 (Fab, V domains shown)
VH: QVQLVESGGGVVQPGRSLRLSCAASGFTFSSYDMSWVRQAPGKGLEWVAKVSSGGGSTYYLDTVQGRFTISRDNSKNTLYLQMNSLRAEDTAVYYCARHNYGSFAAWGQGTTVTVSS
VL: EIVLTQSPATLSLSPGERATLSCQASQSISNHLHWYQQRPGQAPRLLIRYRSQSISGIPARFSGSGSGTDFTLTISSLEPEDFAVYYCQQSGSWPHTFGGGTKVEIK
notes: Fab
B18: in experiment [2], the “fold enhanced binding” value was greater than 3 fold.

B19: LM609 grafted antibody combinatorial clone 7 (Fab, V domains shown)
VH: QVQLVESGGGVVQPGRSLRLSCAASGFTFSSYDMSWVRQAPGKGLEWVAKVSSGGGSTYYPDTVQGRFTISRDNSKNTLYLQMNSLRAEDTAVYYCARHNHGSFASWGQGTTVTVSS
VL: EIVLTQSPATLSLSPGERATLSCQASQSISNFLHWYQQRPGQAPRLLIRYRSQSISGIPARFSGSGSGTDFTLTISSLEPEDFAVYYCQQSGSWPHTFGGGTKVEIK
notes: Fab
Regarding B19, the “fold slower dissociation rate” value in experiment [1] is greater than 10 fold.

B20: LM609 grafted antibody combinatorial clone C119 (Fab, V domains shown)
VH: QVQLVESGGGVVQPGRSLRLSCAASGFTFSSYDMSWVRQAPGKGLEWVAKVSSGGGSTYYPDTVQGRFTISRDNSKNTLYLQMNSLRAEDTAVYYCARHNYGSFASWGQGTTVTVSS
VL: EIVLTQSPATLSLSPGERATLSCQASQSISNHLHWYQQRPGQAPRLLIRYRSQSISGIPARFSGSGSGTDFTLTISSLEPEDFAVYYCQQSNSWPHTFGGGTKVEIK
notes: Fab
For B20, the “fold slower dissociation rate” value in experiment [1] was greater than 10 fold.

(Values after patent US20030166872A1 (APPLIED MOLECULAR EVOLUTION, published 2003).)
